Measurements from patent US11564995B2, “Peptide-nanoparticle conjugates” (Wisconsin Alumni Research Foundation, priority 2018, dated 2023).
“Also recorded” adds a separate entry of the source. Residues, ends and D or L forms follow the SMILES beside them. No end group written: not given here.

Tests used:
PD-L1 proteins = biological target: T1, PD-L1 proteins (Homo sapiens, UniProt Q9NZQ7); test: Surface plasmon resonance (SPR) binding to immobilized PD-L1
T1 construct: purchased R&D systems
Procedure: Surface plasma resonance (SPR). SPR analysis was done using a BIAcore™ X (Pharmacia Biosensor AB, Uppsala, Sweden). In short, PD-L1 proteins (R&D systems) were immobilized onto carboxylated dextran-coated gold film surface of sensor chip (CM5 sensor chip, GE Healthcare) through EDC/NHS chemistry. 30 μL of sample solution was injected at a flow rate of […]. Sample solution was allowed to flow into both channels (channel 1 for reference, channel 2 with PD-L1), and the final SPR sensorgrams were obtained by subtracting the […].

fβH2_mt/PD-L1 complex = fβH2_mt/PD-L1 complex (Homo sapiens, UniProt Q9NZQ7); test: Fluorescence polarization (FP) competition assay; assay type: binding; details: 10 nM, PD-L1, 2 μM, FIG. 15
Procedure: Fluorescence polarization (FP) assay. FP assay in PBS was used the PD-L1 binding and competition assays (λex=480 nm; λem=535 nm). Fluorescence anisotropy measurements were performed at room temperature, in a 384-well plate, and using an Infinite® M1000 Pro microplate reader (Tecan). A fβH2_mt/PD-L1 complex was used for the FP competition assay after 30 min incubation time and titrated with the competitors.

[1] = system: 786-O cells (a PD-L1 overexpressing cell line); test: Fluorescence microscopy of cell interaction, 786-O cells; assay type: cell-based, Human
Procedure: (§1) Cell culture. Human renal cell carcinoma (RCC) cell line, 786-O, and breast cancer cell line, MCF-7, were utilized as high- and low-PD-L1 expressing cancer cell models, respectively. The human T lymphocyte cell line, Jurkat, was used in this study as a representative PD-1-expressing immune cells. 786-O and Jurkat T cells were cultured in RPMI media, while MCF-7 cells were grown in DMEM media. All cell culture media were supplemented with 1% (v/v) penicillin/streptomycin (P/S) and 10% (v/v) fetal bovine serum (FBS). Cells were incubated under humidified atmosphere containing 5% CO2 at 37° C.

786-O cells = test: Chemosensitivity assay with doxorubicin in cancer cell/Jurkat T cell co-culture; assay type: cell-based, Human; details: 786-O cells co-cultured with Jurkat T cells, then DOX; FIG. 22
Procedure: as §1
Chemosensitivity Assay. Chemosensitivity assay was performed by measuring the synergistic cytotoxicity effect of immune checkpoint inhibitors, together with chemotherapeutic drug, doxorubicin. Cancer cells were plated in 96-well plates (5,000 cells/well) and incubated for 48 h. Cancer cells and Jurkat T cells were pre-treated with IFNγ and PHA/PMA as aforementioned. Cancer cells were then stained with calcein AM (1.5 μM), followed by 2 h treatment with ICIS. The cells were co-cultured for another 24 h in a 1:4 ratio, prior to doxorubicin (5 μM) treatment. The effect of each ICI on cancer cell survival following doxorubicin treatment (2 h) was analyzed based on changes in fluorescent intensity.

[2] = system: MCF-7 cells (with a low level of PD-L1 expression); test: Fluorescence microscopy of cell interaction, MCF-7 cells; assay type: cell-based, Human; details: treated 1 h
Procedure: as §1

T1 sequence (Q9NZQ7 19-290): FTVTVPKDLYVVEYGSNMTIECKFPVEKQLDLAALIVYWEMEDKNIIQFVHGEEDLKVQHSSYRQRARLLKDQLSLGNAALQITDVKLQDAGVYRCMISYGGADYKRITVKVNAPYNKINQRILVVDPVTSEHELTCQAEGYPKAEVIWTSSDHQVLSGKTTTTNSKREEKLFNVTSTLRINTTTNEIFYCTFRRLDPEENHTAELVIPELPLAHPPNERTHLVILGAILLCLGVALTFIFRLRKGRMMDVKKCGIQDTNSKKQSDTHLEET
Chain of fβH2_mt/PD-L1 complex (Q9NZQ7 19-239 limits assumed, one chain of several): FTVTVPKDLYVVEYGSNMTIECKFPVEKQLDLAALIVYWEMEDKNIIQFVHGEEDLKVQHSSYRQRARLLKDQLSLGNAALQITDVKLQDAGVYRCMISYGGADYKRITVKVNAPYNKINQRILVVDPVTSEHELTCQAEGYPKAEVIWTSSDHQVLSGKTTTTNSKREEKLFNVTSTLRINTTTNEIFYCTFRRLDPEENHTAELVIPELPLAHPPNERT

kon (PD-L1 proteins; SPR, read-out: association rate constant (ka)) [M⁻¹ s⁻¹] | PD-L1 affinity relative to βH2_mt (PD-L1 proteins; SPR) | association rate constant (ka) (PD-L1 proteins; SPR) | Molecule | displacement of fβH2_mt from PD-L1 / complex integrity (fβH2_mt/PD-L1 complex) | cell interaction (Rhodamine fluorescence) ([1]; 786-O cells, treated 1 h) | PD-L1 selectivity (786-O vs MCF-7 cells) ([1]; fluorescence microscopy, 786-O vs MCF-7) | PD-L1 affinity by SPR sensorgram (comparison in words) (PD-L1 proteins; immobilized PD-L1 proteins, FIG. 4 and 5) | decrease of cell viability compared to cells treated with doxorubicin only (786-O cells) [%] | cell interaction (Rhodamine fluorescence) [2]
1070 |  |  | CC(C)[C@H](NC(=O)[C@@H](NC(=O)[C@@H](N)Cc1c[nH]cn1)C(C)C)C(=O)N[C@@H](Cc1c[nH]c2ccccc12)C(=O)N[C@@H](Cc1c[nH]cn1)C(=O)N[C@@H](CCCNC(=N)N)C(=O)N[C@@H](CCC(=O)O)C(=O)N[C@@H](CO)C(=O)N1CCC[C@H]1C(=O)N[C@@H](CO)C(=O)NCC(=O)N[C@@H](CCC(N)=O)C(=O)N[C@H](C(=O)N[C@@H](CC(=O)O)C(=O)N[C@H](C(=O)N[C@@H](CCCCN)C(=O)N[C@@H](C)C(=O)N[C@@H](C)C(N)=O)[C@@H](C)O)[C@@H](C)O [βH2_mt, HVVWHRESPSGQTDTKAA] (H-HVVWHRESPSGQTDTKAA-NH2; N-terminus and C-terminus assumed) |  |  |  |  |  | 
 | five orders of magnitude higher | 2.52×10^5 | G7-βH2_mt: βH2_mt peptides attached to the surface of generation seven (G7) PAMAM dendrimers, rhodamine labelled; about 30 peptides per dendrimer (HVVWHRESPSGQTDTKAA; also: attached to surface of G7 PAMAM dendrimers, about 30 peptides per dendrimer, rhodamine labelled) | dose-dependent displacement of fβH2_mt from PD-L1; also recorded: more effective competitiveness than aPDL1 antibodies | strong cell interactions | high PD-L1 selectivity | higher affinity to immobilized PD-L1 proteins than G7-βH1_mt; also recorded: higher than that of the wildtype βH2-dendrimer conjugate control (G7-βH2_wt) | 8.4±3.8 | interacted significantly less
